Tests used:
Assay in all cases: pull-down
[1] = biological target: PPM-1.D(568-766) (C. elegans)
[2] = biological target: MBP-3C–PPM-1.D–truncated–10×HIS (C. elegans)
[3] = biological target: MBP–PPM-1.D–10×HIS (C. elegans)

B1: GST–CHK-2–3×FLAG (enzyme)
chain: MVRGTKRRRSSAEKPIVVVPVTRDDTMPVDEDLVVGESQCAASKPFAKLVGVRRGISSIDLADDHFVCGRGSDDAPTNFNFSQVAKDVGLYRFISKIQFSIDRDTETRRIYLHDHSRNGTLVNQEMIGKGLSRELMNGDLISIGIPALIIFVYESADADHHPEELTKKYHVTSHSLGKGGFGKVLLGYKKSDRSVVAIKQLNTQFSTRCSRAIAKTRDIRNEVEVMKKLSHPNIVAIYDWITVAKYSYMVIEYVGGGEFFSKVVDSKYNRMGLGESLGKYFAFQLIDAILYLHSVGICHRDIKPENILCSDKAERCILKLTDFGMAKNSVNRMKTRCGTPSYNAPEIVANEGVEYTPKVDIWSLGCVLFITFSGYPPFSEEYTDMTMDEQVLTGRLIFHAQWRRITVETQNMIKWMLTVEPSNRPSAVELMSTQWMKCADCRTAKQDILKSIKPISAAAPAALQTTQAGPVKKAKM
For B1, the fold less binding than PPM-1.D [1] was 10 times, the fold more binding than PPM-1.D^trunc [1] was 7 times and the fold binding relative to the MBP affinity tag (NRDE2∆N control) [2] was 4 times. The fold binding relative to PPM-1.D lacking the C terminus [3] was 70 fold.
